Holding throughout (details): FMN input: 0 or 200 uM; Eterna round: R93 (includes R88 designs)
Series [1] concerns MS2 coat protein. Nature of the series: apparent KD of MS2 coat protein, switch ON state; designed switch direction (-1 OFF switch, 1 ON switch): 1; higher = weaker reporter binding. The procedure, abridged: (§1)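 Binding of SNAP-549-labelled MS2 coat protein was measured on designed RNA switches transcribed on-chip from Illumina sequencing clusters. The protein rose in twofold steps from 0.7 or 1.5 nM to 3 µM, with 0.8–1.5 h per step early on and 10–20 min per step later, in 100 mM Tris-HCl pH 7.5, 80 mM KCl, 4 mM MgCl2, without or with constant ligand. Each design's apparent KD is the median of fits to its normalised cluster binding curves.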

In series [2] the test system is MS2 coat protein. Nature of the series: apparent KD of MS2 coat protein, switch OFF state (with FMN for OFF switches, without FMN for ON switches); designed switch direction (-1 OFF switch, 1 ON switch): 1; higher = weaker reporter binding. Summed up: as §1
The test system of series [3] is MS2 coat protein. The series can be described thus: apparent KD of MS2 coat protein, switch ON state; designed switch direction (-1 OFF switch, 1 ON switch): -1; higher = weaker reporter binding. The procedure, abridged: as §1
In series [4] the test system is MS2 coat protein. The series can be described thus: apparent KD of MS2 coat protein, switch OFF state (with FMN for OFF switches, without FMN for ON switches); designed switch direction (-1 OFF switch, 1 ON switch): -1; higher = weaker reporter binding. Summed up: as §1

The text below walks through data of the supplement of paper PMC9170038.

Turning to “AAAAAAAAAACUCAGGAUAUAGAUAAUUGAACAUGAGGAUCACCCAUGUAGUGAAAAAAAAAAAAUUAGAAGGGAGGAAAAAAAAA [SameState2-01]”, the “apparent KD of MS2 coat protein” value turned out to be 52.9 nM in the series on MS2 coat protein [1] and 45.4 nM in the series with MS2 coat protein [2].

“AAAAAAAAAAGACAGGAUAUCCAAAAGAAAACAUGAGGAUCACCCAUGUAAAAGAAAAUAAAAUGGGAGAAGGGUCAAAAUAAAG [Mat - Same State 2 - JL mod - D74]”: the “apparent KD of MS2 coat protein” value in the series with MS2 coat protein [1] stood at 9.39 nM; in the series with MS2 coat protein [2], 58.2 nM.

Turning to “AAAAAAAAAAGGCAGGAUAUCCAAAAAAAAACAUGAGGAUCACCCAUGUAAAAAAAAAAAAAAUGGGAGAAGGGCCAAAAAAAAA [Mat - Same State 2 - Rerun Eli mod - D85]”, the “apparent KD of MS2 coat protein” value in the series on MS2 coat protein [1] came to 63.1 nM; in the series on MS2 coat protein [2], 64.4 nM.

Take “AAAAAAAAUGUGUAGGAUAUCAGUAAAAAUACAUGAGGAUCACCCAUGUUCAAAAAAAAAAAAACUGAGAAGGACACGGGAAGUCC [Design 2]”: the “apparent KD of MS2 coat protein” value was determined as 20.5 nM with MS2 coat protein [1] and 18.5 nM with MS2 coat protein [2].

With “AAAAAACAUGAGGAUCACCCAUGUAAAAAAAACACAGGAUAUCCCUUUUAAAAAAAAAAAGGAGAAGGGUGAAAAA [Nob's Hobby 5 - Jieux - Same State 1]”, the “apparent KD of MS2 coat protein” value in the series on MS2 coat protein [1] is 16.1 nM; in the series with MS2 coat protein [2], 29.9 nM.

Regarding “AAAAAACAUGAGGAUCACCCAUGUAAAAAAAAUGGAGGAUAUUGGAAAAAAAAAAAAAAACGAGAAGGCUAAAAAA [quick and simple]”, the “apparent KD of MS2 coat protein” value with MS2 coat protein [1] was 44.4 nM; in the series on MS2 coat protein [2], 50.4 nM.

In the case of “AAAAAACAUGAGGAUCACCCAUGUAAAAAAAUCGCAGGAUAUAGGGUCGCGAAAGCGACCCUAGAAGGGCGAUCCU [Louisiana 2 - Jieux - Same State 1]”, the “apparent KD of MS2 coat protein” value in the series on MS2 coat protein [1] was 52 nM; with MS2 coat protein [2] it was 76.1 nM.

For the sequence “AAAAAACAUGAGGAUCACCCAUGUAAAAAAAUGGGAGGAUAUACAAAAACGAAAAAAAAAGUAGAAGGCCUGAAAA [same state 8]”, the “apparent KD of MS2 coat protein” value with MS2 coat protein [1] is 57.4 nM; in the series with MS2 coat protein [2], 162 nM.

With “AAAAAACAUGAGGAUCACCCAUGUAAAAAAAUGGGAGGAUAUACAAAGACGAAAGUCAAAGUAGAAGGCCUGAAAG [same state 3]”, the results for the “apparent KD of MS2 coat protein” value with MS2 coat protein [1] and with MS2 coat protein [2] were 21.7 nM and 58.4 nM, respectively.

“AAAAAACAUGAGGAUCACCCAUGUAAAAAUAUGGAAGGAUAUGGAAACACGAAAGUGAAACCAGAAGGUCUAAAAG [77%, Mat - Mod of Eli, 10]”: the “apparent KD of MS2 coat protein” value with MS2 coat protein [1] is 17.1 nM; in the series on MS2 coat protein [2], 21.3 nM.

“AAAAAACAUGAGGAUCACCCAUGUAAACCUCAUGUAGGAUAUACAAAAAAAAAAAAAAAAGUAGAAGGACAAAAAA [Omei A variation 2]”: the “apparent KD of MS2 coat protein” value in the series with MS2 coat protein [1] is 4790 nM; with MS2 coat protein [2], 1970 nM.

Take “AAAAAACAUGAGGAUCACCCAUGUCUUUUGACAUGAGGAUAUGUACAGACUUCGGUCUGUACAGAAGGCAUGAAAA [SS1 - 1029]”: the “apparent KD of MS2 coat protein” value was 48.4 nM in the series on MS2 coat protein [1] and 432 nM in the series with MS2 coat protein [2].

Take “AAAAAACAUGAGGAUCACCCAUGUGACAACAUGGGAGGAUAUACGAAGACGAGAGUCGAAGUAGAAGGCCUAAAAA [Garnet 76]”: the “apparent KD of MS2 coat protein” value in the series on MS2 coat protein [1] stood at 98.5 nM; in the series on MS2 coat protein [2], 65.2 nM.

With “AAAAAACAUGAGGAUCACCCAUGUGCAAAAUUCGCAGGAUAUCCCUUUUUUAAAUGGGAGGGAGAAGGGUGAAAAA [Nob's Hobby 17 - Jieux - Same State 1]”, the “apparent KD of MS2 coat protein” value in the series on MS2 coat protein [1] was found to be 23.7 nM; in the series with MS2 coat protein [2], 76 nM.

In the case of “AAAAAACAUGAGGAUCACCCAUGUGCAAAAUUCGCAGGAUAUUCCUCAAUUAAAUGAAAGGAAGAAGGGUGAUAAA [Nob's Hobby 31 - Jieux - Same State 1]”, the “apparent KD of MS2 coat protein” value in the series on MS2 coat protein [1] is 79.7 nM; in the series with MS2 coat protein [2] it was 429 nM.

“AAAAAAUAAAAAAAGGAUAUCUGCAGUACGACAUGAGGAUCACCCAUGUGGUACUGCAGAUAUCAAAAGAAGGAAAAAUAAAAAA [SS2: MS2 52]”: the results for the “apparent KD of MS2 coat protein” value in the series with MS2 coat protein [1] and in the series on MS2 coat protein [2] were 13.6 nM and 18.1 nM, respectively.

Consider “AAAACACAUGAGGAUCACCCAUGUAAAAACAUGGGAGGAUAUGCAUGGAAAACAUGCUAUGCAGAAGGCUCAUGUG [SS1 - 6]”, for which the figures for the “apparent KD of MS2 coat protein” value with MS2 coat protein [1] and in the series with MS2 coat protein [2] were 14.9 nM and 17.2 nM, respectively.

In the case of “AAAACUACAGAUCAGGAUAUGUUUGGGUAAACAUGAGGAUCACCCAUGUGCACCCGAUAAACAACACAGAAGGGAUAACGUGGGA [Soensole]”, the “apparent KD of MS2 coat protein” value in the series on MS2 coat protein [1] is 12.7 nM; with MS2 coat protein [2] it was 23.7 nM.

Take “ACCCGACAUGAGGAUCACCCAUGUAAACAAUCAUGAGGAUAUCCGGAGCAAGUGCUCCAGGGAGAAGGCAUAAAAG [Reesbema]”: the “apparent KD of MS2 coat protein” value with MS2 coat protein [2] was 122 nM.

For “AGGUAACAUGAGGAUCACCCAUGUACCAAUAAUGCAGGAUAUCGACACGAAAAUACGUGUCGAGAAGGGCAUGAAA [SS1 MT 22]”, the “apparent KD of MS2 coat protein” value with MS2 coat protein [1] was 13.4 nM.

With “UAGAACCUAGGAUAUACUUGGACCACUAAUUUACAGAUAUAACAUGAGGAUCACCCAUGUAGAAGGAGGAGUAA [JR_Exc002_Sub202]”, the “apparent KD of MS2 coat protein” value turned out to be 36.8 nM with MS2 coat protein [3] and 25.7 nM with MS2 coat protein [4].

With “UAUAUACAUGAGGAUCACCCAUGUCAGGAUAUGCGCCUAGAAUAUACAUAAGAUACAAGCAGAAGGGACACUAA [JR_Exc001_Sub206]”, the figures for the “apparent KD of MS2 coat protein” value in the series with MS2 coat protein [3] and with MS2 coat protein [4] were 57.3 nM and 49.9 nM, respectively.

“UAUGAGCGAGGAUAUGCUUGGGACUGUCGGAAUGUGGCGGGACAUGAGGAUCACCCAUGUAGAAGGCGCGAGCG [Harteesian Stick]”: the “apparent KD of MS2 coat protein” value came out at 77.9 nM in the series on MS2 coat protein [3] and 126 nM with MS2 coat protein [4].

“UCCGAACAUGAGGAUCACCCAUGUCAGGAUAUACACCCAGCAUGUAAACCAUGCUCAAGUAGAAGGGACGGGUG [Teisaes]”: the “apparent KD of MS2 coat protein” value in the series on MS2 coat protein [3] is 34.9 nM; in the series with MS2 coat protein [4] it was 25.7 nM.

In the case of “UCCUCACAUGAGGAUCACCCAUGUGAGGAUAUGUACAUCAGGAAAAAAAAACUGAUGUACAGAAGGCACAUGGG [Design 8: Super Stable G-C]”, the “apparent KD of MS2 coat protein” value in the series with MS2 coat protein [3] was 30.8 nM; in the series on MS2 coat protein [4] it was 15.2 nM.

In the case of “UCGUGGUCAGGAUAUACAUGAGGAUCACCCAUGUAAAAGAACAUAAAGGAGAGACGACGUAGAAGGGACAAAUA [Ralasoena]”, the “apparent KD of MS2 coat protein” value in the series on MS2 coat protein [3] was determined as 46.3 nM; in the series on MS2 coat protein [4], 51.5 nM.

Consider “UGCAUGUAAGGAUAUGCAACCGGCGCACAUUAGCAGGUCAAGCAGAAGGUACAUGAGGAUCACCCAUGUGUCCG [Lalebiis]”, for which the “apparent KD of MS2 coat protein” value in the series on MS2 coat protein [3] was 26.9 nM; with MS2 coat protein [4], 99.4 nM.

Take “UGUUGGCGAGGAUAUACAUGAGGAUCACCCAUGUGAGAGAAAAAAGUGAGAAAGAAAAGUAGAAGGCGCUGACC [salish99-ex3-10]”: the “apparent KD of MS2 coat protein” value with MS2 coat protein [3] is 68.5 nM; in the series on MS2 coat protein [4], 203 nM.

Regarding “UUUAUGUGAGGAUAUCAGUAGUAAAAAAAUAAAAUUACUACUGAGAAGGCACAUGAGGAUCACCCAUGUGAAAA [EX4 340: Super Stable 40]”, the “apparent KD of MS2 coat protein” value is 61.9 nM in the series with MS2 coat protein [3] and 161 nM in the series with MS2 coat protein [4].

In the case of “UUUUGACAUGAGGAUCACCCAUGUCAGGAUAUAGUAGGAAAAAAAAAAAAAAAAACUACUAGAAGGGAUAUGGA [Design 15: Not So Super Stable 1]”, the “apparent KD of MS2 coat protein” value is 21.7 nM in the series with MS2 coat protein [3] and 40.2 nM in the series with MS2 coat protein [4].
